Data from US20240247072A1 (KEYMED BIOSCIENCES, published 2024).
One block for each binder: values may come before it.

Key:
[1] = biological target: T1, human CD70, full length, on CHO cells (CHO-human CD70-B07) (human, UniProt P32970 1-193); assay: FACS (iQue) on CHO-human CD70 stably transfected cells, Alexa Fluor 647 anti-human IgG secondary antibody
T1 construct: whole, on cells; Stably transfected CHO cells; also called CHO-CD70
T1 sequence (looked up): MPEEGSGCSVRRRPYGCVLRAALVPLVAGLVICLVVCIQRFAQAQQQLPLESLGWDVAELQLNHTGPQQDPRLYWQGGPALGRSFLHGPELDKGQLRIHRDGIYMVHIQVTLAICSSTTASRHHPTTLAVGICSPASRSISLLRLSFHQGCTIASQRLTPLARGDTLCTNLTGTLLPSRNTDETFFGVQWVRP
Procedure: (§1) The supernatant was discarded and the cells were gently tapped to be loosening. 50 μL of gradient diluted antibodies were added (antibody concentration: from 30 μg/mL, 3-fold dilution for 8 gradients) per well, and incubated at 4° C. for 1 hour. After incubation, 200 μL of 0.5% BSA was added to each well for washing 3 times. 50 μL/well of secondary antibody Alexa Fluro647 anti-human IgG (Jackson ImmunoResearch, Cat. No: 109-606-170) was added and incubated at 4° C. for 45 minutes. At the end of the incubation, each well was washed 3 times with 180 μL of 0.5% BSA and finally resuspended in 50 μL of PBS for iQue (Intellicyt) assay.

[2] = biological target: T2, recombinant trimeric protein of human CD70 extracellular region (human CD70 mIgG Fc (knob) / mouse IgG Fc … (human, UniProt P01863 98-330 = IgG part)); assay: competition ELISA, chimeric IgG titrated, CD27 coated, biotin-CD70, human pair
T2 construct: The ELISA and Octet texts say only 'recombinant CD70 protein' / 'CM352 antigen'; also called recombinant human CD70 protein; recombinant CD70 protein
T2 chain 1: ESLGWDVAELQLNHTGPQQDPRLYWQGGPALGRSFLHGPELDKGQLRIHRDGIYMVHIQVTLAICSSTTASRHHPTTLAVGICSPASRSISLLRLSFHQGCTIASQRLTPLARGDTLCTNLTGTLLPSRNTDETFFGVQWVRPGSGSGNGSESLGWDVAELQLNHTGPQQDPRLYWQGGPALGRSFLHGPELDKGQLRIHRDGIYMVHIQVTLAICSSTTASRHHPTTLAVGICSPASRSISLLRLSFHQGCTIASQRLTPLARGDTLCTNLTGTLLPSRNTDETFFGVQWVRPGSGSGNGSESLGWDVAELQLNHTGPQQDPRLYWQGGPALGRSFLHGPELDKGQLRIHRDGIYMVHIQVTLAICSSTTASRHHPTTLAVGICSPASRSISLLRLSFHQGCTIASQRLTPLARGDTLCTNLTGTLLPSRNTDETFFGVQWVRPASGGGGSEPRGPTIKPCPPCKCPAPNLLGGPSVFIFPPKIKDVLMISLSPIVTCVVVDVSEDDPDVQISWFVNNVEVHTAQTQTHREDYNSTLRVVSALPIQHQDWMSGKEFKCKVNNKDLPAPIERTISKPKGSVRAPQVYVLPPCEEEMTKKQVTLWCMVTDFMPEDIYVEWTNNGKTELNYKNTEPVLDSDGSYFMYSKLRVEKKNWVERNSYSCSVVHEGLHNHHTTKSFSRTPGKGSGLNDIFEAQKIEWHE
T2 chain 2: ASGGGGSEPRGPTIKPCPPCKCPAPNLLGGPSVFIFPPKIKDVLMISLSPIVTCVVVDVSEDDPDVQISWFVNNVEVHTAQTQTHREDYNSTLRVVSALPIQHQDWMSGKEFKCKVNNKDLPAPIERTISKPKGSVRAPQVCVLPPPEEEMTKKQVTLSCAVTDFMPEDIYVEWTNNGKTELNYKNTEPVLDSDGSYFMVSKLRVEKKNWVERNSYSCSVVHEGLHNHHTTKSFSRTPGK
Procedure: (§2) The recombinant CD27 protein was coated at 1 μg/mL in a 96-well microtiter plate and incubated overnight at 4° C. The next day, the plate was washed 3 times with PBS, added with 200 μL of 2% defatted dry milk/PBS, blocked at room temperature for 2 hours, and washed once with PBS. The purified chimeric antibody was divided to 12 concentration gradients starting at 100 nM and diluted in a 1:3 gradient. […] of the antibody was added per well and incubated at room temperature for 30 minutes. […] The plate was washed 3 times with PBST and PBS and dried by spinning. A secondary antibody Streptavidin-coupled horseradish peroxidase SA-HRP (BD bioscience, cat. No: 6222697) was diluted with 0.5% BSA in a ratio of 1:8000. 100 μL of the diluent was added into each well and incubated at room temperature for 30 minutes. The plate was washed 3 times with PBST and PBS and dried by spinning. 100 μl of color development solution (TMB solution, Sigma, Cat. No: T2885) was added into each well and protected from light at 37° C. for reaction. After the substrate developed moderately, 50 μl of H₂SO₄ was added into each well to terminate the reaction. The OD450 nm was determined by using an enzyme-linked detector within 30 minutes, and the data was collected. The results were calculated by using Graph Pad Prism 5 software.

[3] = biological target: T1, human CD70, full length, on CHO cells …; assay: flow cytometry, chimeric IgG on CHO-human CD70 cells
Procedure: (§3) Different cells in logarithmic growth phase were taken, blocked with 3% BSA for 30 minutes, and plated to a 96-well U-plate at 5×10⁴ cells/100 μL. The centrifuge was performed at 1100 rpm for 3 minutes. The supernatant was discarded and the cells were gently tapped to be loosening. 50 μL of gradient diluted antibody was added (antibody concentration: from 30 μg/mL, 3-fold dilution for 5 gradients) per well, and incubated at 4° C. for 1 hour. After incubation, 180 μL of 0.5% BSA was added to each well for washing 3 times. 30 μL/well of secondary antibody AlexaFluro647 anti-human IgG (Jackson Immuno Research, Cat. No: 109-606-170) was added and incubated at 4° C. for 45 minutes. At the end of the incubation, each well was washed 3 times with 180 μL of 0.5% BSA and finally resuspended in 50 μL of PBS for iQue (Intellicyt, USA) assay.

[4] = biological target: T3, cynomolgus monkey CD70, full length, on CHO cells (CHO-monkey CD70-D01) (cynomolgus monkey, UniProt A0A2K5WTU9 1-190); assay: flow cytometry, chimeric IgG on CHO-cynomolgus monkey CD70 cells
T3 construct: whole, on cells; Stably transfected CHO cells; also called CHO-cynomolgus monkey CD70
T3 sequence: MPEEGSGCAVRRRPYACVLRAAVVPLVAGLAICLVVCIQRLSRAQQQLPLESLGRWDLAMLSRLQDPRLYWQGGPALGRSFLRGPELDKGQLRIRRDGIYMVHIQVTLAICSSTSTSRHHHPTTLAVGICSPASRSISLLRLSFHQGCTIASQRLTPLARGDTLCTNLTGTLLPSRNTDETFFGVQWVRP
Procedure: as §3

[5] = biological target: T4, recombinant cynomolgus monkey CD70 protein (cynomolgus monkey, UniProt A0A2K5WTU9 39-190); assay: competition ELISA, chimeric IgG titrated, CD27 coated, biotin-CD70, cynomolgus pair
T4 construct: it stands only in column heads ('Monkey', 'Cynomolgus Monkey CD70/CD27') and in result sentences; also called Monkey (ELISA)
T4 sequence: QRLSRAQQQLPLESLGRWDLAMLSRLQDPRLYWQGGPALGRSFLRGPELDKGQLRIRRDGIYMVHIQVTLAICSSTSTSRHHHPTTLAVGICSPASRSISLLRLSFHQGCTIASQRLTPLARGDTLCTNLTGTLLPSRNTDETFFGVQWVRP
Procedure: as §2

[6] = biological target: T3, cynomolgus monkey CD70, full length, on …; assay: FACS (iQue) on CHO-cynomolgus monkey CD70 stably transfected cells, Alexa Fluor 647 anti-human IgG secondary antibody
Procedure: as §1

[7] = biological target: T1, human CD70, full length, on CHO cells …; assay: flow cytometry, humanized IgG1 on CHO-human CD70 cells
Procedure: as §1

[8] = biological target: T2, recombinant trimeric protein of human …; assay: competition ELISA, humanized IgG1 titrated, CD27 coated, biotin-CD70, human pair
Procedure: The recombinant human CD27 protein was coated at 1 μg/mL in a 96-well microtiter plate and incubated overnight at 4° C. The next day, the plate was washed 3 times with PBS, added with 200 μL of 2% defatted dry milk/PBS, blocked at room temperature for 2 hours, and washed once with PBS. […] 30 μl of the antibody was added per well and incubated at room temperature for 30 minutes. […] The plate was washed 3 times with PBST and PBS and dried by spinning. A secondary antibody solution Streptavidin-coupled horseradish peroxidase SA-HRP (BD bioscience, Cat. No: 6222697) was diluted with 0.5% BSA in a ratio of 1:8000. 100 μL of the diluent was added into each well and incubated at room temperature for 30 minutes. The plate was washed 3 times with PBST and PBS and dried by spinning. […] of color development solution (TMB solution, Sigma, Cat. No: T2885) was added into each well and protected from light at 37° C. for reaction. After the substrate developed moderately, […] of H₂SO₄ was added into each well to terminate the reaction. The OD450 nm was determined using an enzyme-linked detector within 30 minutes, and the data was collected. The results were calculated by using Graph Pad Prism 5 software. See FIG. 10-1, 10-2, and Table 12 for the results.

[9] = biological target: T2, recombinant trimeric protein of human …; assay: cell-based or functional assay
[10] = biological target: T4, recombinant cynomolgus monkey CD70 …; assay: competition ELISA, humanized IgG1 titrated, CD27 coated, biotin-CD70, cynomolgus pair
[11] = biological target: FcγRIIIV158 on PBMC of FcγRIIIV158/V158 volunteers (human) (UniProt P08637); assay: cell-based or functional assay
[12] = biological target: FcγRIIIF158 on PBMC of FcγRIIIF158/F158 volunteers (human) (UniProt P08637); assay: cell-based or functional assay
[13] = biological target: T3, cynomolgus monkey CD70, full length, on …; assay: flow cytometry, humanized IgG1 on CHO-cynomolgus monkey CD70 cells
Procedure: as §1

[14] = biological target: FcγRIII V158 (CD16a receptor, high-affinity allele) (human) (UniProt P08637); assay: SPR (Biacore)
[15] = biological target: FcγRIII F158 (CD16a receptor, low-affinity allele) (human) (UniProt P08637); assay: SPR (Biacore)
Sequence of FcγRIII F158 (CD16a receptor, low-affinity allele) (human) (P08637 17-208 limits assumed): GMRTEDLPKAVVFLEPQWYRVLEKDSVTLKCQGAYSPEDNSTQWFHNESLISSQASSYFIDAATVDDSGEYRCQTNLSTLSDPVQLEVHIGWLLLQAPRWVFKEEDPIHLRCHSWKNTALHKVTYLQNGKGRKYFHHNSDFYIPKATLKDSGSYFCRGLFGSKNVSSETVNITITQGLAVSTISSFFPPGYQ

Sequence of FcγRIIIV158 on PBMC of FcγRIIIV158/V158 volunteers (human) (P08637 17-254 F176V): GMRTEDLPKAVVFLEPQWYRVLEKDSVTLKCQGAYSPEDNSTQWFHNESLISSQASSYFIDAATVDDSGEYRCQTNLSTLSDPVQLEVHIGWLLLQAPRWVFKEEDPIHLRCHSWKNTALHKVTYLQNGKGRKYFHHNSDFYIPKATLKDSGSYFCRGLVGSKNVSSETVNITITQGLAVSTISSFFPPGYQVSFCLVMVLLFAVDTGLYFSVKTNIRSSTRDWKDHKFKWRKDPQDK
Sequence of FcγRIIIF158 on PBMC of FcγRIIIF158/F158 volunteers (human) (P08637 17-254): as the sequence (P08637 17-254 F176V) above, with V160F counted along it
Sequence of FcγRIII V158 (CD16a receptor, high-affinity allele) (human) (P08637 17-208 F176V limits assumed): as the sequence (P08637 17-208 limits assumed) above, with F160V counted along it

EC50 (read off the curve) [1]: ~3 nM
IC50 [2]: 0.06 nM
EC50 [3]: 10.2 nM
EC50 [4]: 15.1 nM
IC50 [5]: 0.08 nM
EC50 (read off the curve) [6]: ~3 nM
B1: 39H5 chimeric antibody (antibody, V domains shown)
VH: EIQLVQSGPELKKPGETVKISCKASGYTFTNYGMNWVKQAPGQGLKWMGWINTYTGEPTYADDFTGRFAFSLETSASTAYLQINNLKNEDMAAYFCAREEDYRYVFNYWGQGTTLTVSS
VL: DIQMIQSTSSLSASLGNRVTISCRASQDISNYLNWYQQKPDGTVKLLIYDTSRLHAGVPSRFSGSGSGTDYSLTISNLEQEDIATYFCQQGVTLPLTFGAGTKLEIK

EC50 [7]: 2.15 nM
IC50 [8]: 0.04 nM
Inhibition of IL-8 secretion IC50(nM), HT1080-human CD27 cells stimulated with recombinant human CD70 [9]: 11 nM
IC50 [10]: 0.05 nM
EC50 [13]: 3.39 nM
Kd [14]: 565 nM
Kd [15]: 1300 nM
B2: humanized antibody Ab004 (IgG1 wild type) (antibody, V domains shown)
VH: QVQLVQSGSELKKPGASVKVSCKASGYTFTNYGMNWVRQAPGQGLEWMGWINTYTGEPTYADGFTGRFVFSLDTSASTAYLQISSLKAEDTAVYFCAREEDYRYVFNYWGQGTLVTVSS
VL: DIQMTQSPSSLSASVGDRVTITCQASQDISNYLNWYQQKPGKAPKLLIYDTSRLHAGVPSRFSGSGSGTDYTFTISSLQPEDIATYFCQQGVTLPLTFGQGTKLEIK
notes: also called Ab004 IgG1 wt; h39H5 VHv2 + h39H5 VKv1
ADCC Killing EC50, Daudi targets, FcγRIIIV158 PBMC [11]: 0.22 nM
ADCC Maximum killing rate, Daudi targets, FcγRIIIV158 PBMC [11]: 40%
ADCC Killing EC50, Daudi targets, FcγRIIIF158 PBMC [12]: 0.23 nM
ADCC Maximum killing rate, Daudi targets, FcγRIIIF158 PBMC [12]: 13%
